Experimental data published in patent US20050255555A1.

Experiments:
[1] = target: wt-EGFR, FLAG-tagged full-length human EGFR on BaF/3 cells (human) (UniProt P00533); assay: FACS on wtEGFR-BaF/3 cells, 10 µg/ml antibody
[2] = target: wt-EGFR, FLAG-tagged full-length human EGFR on BaF/3 cells (human) (UniProt P00533); assay: FACS on wtEGFR-BaF/3 cells, median fluorescence against mock preincubation
[3] = target: EGFR 273-621 E293K, yeast surface displayed (yeast; human); assay: from the titrations on yeast surface
[4] = target: EGFR 273-621 C287R, yeast surface displayed (yeast; human); assay: from the titrations on yeast surface
[5] = target: wild-type EGFR 273-621, yeast surface displayed (Example 3) (yeast; human); assay: titration on yeast displaying EGFR 273-621, flow cytometry, three data sets
[6] = target: EGFR 273-621 E293K, yeast surface displayed (yeast; human); assay: titration on yeast surface, flow cytometry
[7] = target: EGFR 273-621 C287R, yeast surface displayed (yeast; human); assay: titration on yeast displaying EGFR 273-621 C287R, flow cytometry, three data sets
[8] = target: EGFR 273-621 C287R, yeast surface displayed (yeast; human); assay: titration on yeast surface, flow cytometry, global fit of three data sets
[9] = target: wild-type EGFR 273-621, yeast surface displayed (Example 3) (yeast; human); assay: as above
[10] = target: monoclonal antibody 806; assay: competition ELISA: peptide in solution against mAb […] binding to plate-coated 1-501 EGFR fragment

Chain of monoclonal antibody 806 (VH): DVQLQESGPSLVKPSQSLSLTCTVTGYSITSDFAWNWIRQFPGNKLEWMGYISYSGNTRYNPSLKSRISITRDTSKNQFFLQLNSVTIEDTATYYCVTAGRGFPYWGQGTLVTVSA
Chain of monoclonal antibody 806 (VL): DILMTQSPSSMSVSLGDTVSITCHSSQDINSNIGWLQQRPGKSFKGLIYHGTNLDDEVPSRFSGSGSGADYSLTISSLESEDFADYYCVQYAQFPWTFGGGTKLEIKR

median fluorescence after mock preincubation [1] | change (%) in antibody reactivity after preincubation with EGF [2] | change (%) in antibody reactivity after preincubation with mAb[…] [2] | ΔΔG compared to wild-type [3] | ΔΔG compared to wild-type [4] | EC50 (read off the curve) [5] | Kd [6] | EC50 (read off the curve) [7] | Kd [8] | Kd [9] | IC50 (read off the curve) [10] | Molecule
112 | -23% | -3% | – | – | – | – | – | – | – | – | monoclonal antibody 528
7 | -48% | 163% | 23.8 kJ/mol | 10 kJ/mol | 0.002 µM | > 30 µM | 0.1 µM | 0.127 µM | 0.00213 µM | – | monoclonal antibody 806
– | – | – | – | – | – | – | – | – | – | 3 mg/L | CGADSYEMEEDGVRKC [287-302 EGFR peptide (287…302)]
